Patent US20230192818A1 (TWIST BIOSCIENCE, published 2023)
Where two headings read alike, the source gives them in different places.

Columns and labels:
SARS-CoV-2 S1 (Acro) [1] = target: T1, SARS-CoV-2 S1 (Acro) (SARS-CoV-2, UniProt P0DTC2 16-685); experiment: SPR (Carterra)
T1 construct: also called Acro S1

SARS-CoV-2 S1 (Acro) [2] = target: T1, SARS-CoV-2 S1 (Acro); experiment: SPR (Carterra); remark: listed apart in the source

B1: 3-31 (Fc fusion)
chain: EVQLVESGGGLVQPGGSLRLSCAASGSTFSINAMGWFRQAPGKEREFVAGITSSGGYTNYADSVKGRFTISADNSKNTAYLQMNSLKPEDTAVYYCAADGVPEYSDYASGPVWGQGTLVTVSS
notes: also called Antibody 3-31
Kd (SARS-CoV-2 S1 (Acro) [1]): 0.021 µM | Kd (SARS-CoV-2 S1 (Acro) [2]): 0.021 µM

B2: 15-3 (Fc fusion)
chain: EVQLVESGGGLVQPGGSLRLSCAASGFTFSPSWMGWFRQAPGKEREFVATINEYGGRNYADSVKGRFTISADNSKNTAYLQMNSLKPEDTAVYYCARVDRDFDYWGQGTLVTVSS
notes: also called Antibody 15-3; Antibody 15 parent
Kd (SARS-CoV-2 S1 (Acro) [1]): 0.0315 µM
